Data as given in patent publication US20240207432A1 (BIOSION, published 2024).
Positions count from the first letter of the chain named.

B1: chimeric C1B3B12D2 (antibody, human IgG1, kappa, V domains shown)
VH: QVQLQQSGPELVRPGTSVKMSCKAAGYTFTKFWIGWVKQRPGHGLEWIGNIYPGGAYINYNENFKGKATLTADTFSSTAYMQLNSLTSADSAIYYCAREGSSGYWGQGTTLTVSS
VL: DIVMTQSPSSLTVTAGEKVTLSCKCSQSLLNSGTQENYLTWYQQKPGQPPKMLIYWASIREPGVPDRFTGSGSGTDFTLTINNVQAEDLAVYYCQHDYSYPFTFGSGTKLEIKR
B2: huA1E4F7D4-V2 (antibody, human IgG1, kappa, V domains shown)
VH: QVQLVQSGAEVKKPGASVKVSCKASGYSFTTHWIHWVRQAPGQGLEWIGTIFPSNAYAVYNQKFRDRATMTADRSISTAYIELSRLRSDDTAVYYCARASYFDYWGQGTTVTVSS
VL: EIVLTQSPATLSLSPGERATLSCRASQNIGTSIHWFQQKPGGSPRLLIKYASESISGIPSRFSGSGSGTDFTLTISSLEPEDFAVYYCQHSHSWPFTFGQGTKLEIKR
notes: Positions of the X residues are printed in CLM-00002, CLM-00003 and CLM-00005; Tested as cell supernatant
B3: huA1E4F7D4-V21 (antibody, human IgG1, kappa, V domains shown)
VH: B2 VH with R74T
VL: B2 VL with K49Y
notes: Positions of the X residues are given in the claims; Tested as cell supernatant
B4: huA1E4F7D4-V4 (antibody, human IgG1, kappa, V domains shown)
VH: B2 VH with A68V
VL: B2 VL
notes: as for B3
B5: huA1E4F7D4-V17 (antibody, human IgG1, kappa, V domains shown)
VH: B2 VH
VL: B2 VL with K49Y
notes: as for B3
B6: huA1E4F7D4-V3 (antibody, human IgG1, kappa, V domains shown)
VH: B2 VH with S28T
VL: B2 VL
notes: as for B3
B7: huA1E4F7D4-V18 (antibody, human IgG1, kappa, V domains shown)
VH: B2 VH with S28T
VL: B2 VL with K49Y
notes: as for B3
B8: huA1E4F7D4-V20 (antibody, human IgG1, kappa, V domains shown)
VH: B2 VH with A72R
VL: B2 VL with K49Y
notes: as for B3
B9: huA1E4F7D4-V5 (antibody, human IgG1, kappa, V domains shown)
VH: B2 VH with A72R
VL: B2 VL
notes: as for B3
B10: huA1E4F7D4-V13 (antibody, human IgG1, kappa, V domains shown)
VH: B2 VH with S28T
VL: B2 VL with S43A
notes: as for B3
B11: huA1E4F7D4-V19 (antibody, human IgG1, kappa, V domains shown)
VH: B2 VH with A68V
VL: B2 VL with K49Y
notes: as for B3
B12: huA1E4F7D4-V9 (antibody, human IgG1, kappa, V domains shown)
VH: B2 VH with A68V
VL: B2 VL with G42Q
notes: as for B3
B13: huA1E4F7D4-V15 (antibody, human IgG1, kappa, V domains shown)
VH: B2 VH with A72R
VL: B2 VL with S43A
notes: as for B3
B14: huA1E4F7D4-V12 (antibody, human IgG1, kappa, V domains shown)
VH: B2 VH
VL: B2 VL with S43A
notes: as for B3
B15: huA1E4F7D4-V10 (antibody, human IgG1, kappa, V domains shown)
VH: B2 VH with A72R
VL: B2 VL with G42Q
notes: as for B3
B16: huA1E4F7D4-V8 (antibody, human IgG1, kappa, V domains shown)
VH: B2 VH with S28T
VL: B2 VL with G42Q
notes: as for B3
B17: huA1E4F7D4-V11 (antibody, human IgG1, kappa, V domains shown)
VH: B2 VH with R74T
VL: B2 VL with G42Q
notes: as for B3
B18: huA1E4F7D4-V14 (antibody, human IgG1, kappa, V domains shown)
VH: B2 VH with A68V
VL: B2 VL with S43A
notes: as for B3
B19: huA1E4F7D4-V6 (antibody, human IgG1, kappa, V domains shown)
VH: B2 VH with R74T
VL: B2 VL
notes: as for B3
B20: huA1E4F7D4-V7 (antibody, human IgG1, kappa, V domains shown)
VH: B2 VH
VL: B2 VL with G42Q
notes: as for B3
B21: huA1E4F7D4-V1 (antibody, human IgG1, kappa, V domains shown)
VH: B2 VH with V37M, R38K, A40R, T69I, S84T
VL: B2 VL with E1D, V3L, L78V
notes: Positions of the X residues are printed in CLM-00003 and CLM-00005; Tested as cell supernatant

These binders were tested against T1, full length human TROP2 on 293F-TROP2 cells (human, UniProt P09758 27-323) (assay: FACS on 293F-TROP2 cells, MFI).
T1 construct: also called 293F-TROP2 cells (clone ID #3A8); cell surface TROP2
T1 sequence: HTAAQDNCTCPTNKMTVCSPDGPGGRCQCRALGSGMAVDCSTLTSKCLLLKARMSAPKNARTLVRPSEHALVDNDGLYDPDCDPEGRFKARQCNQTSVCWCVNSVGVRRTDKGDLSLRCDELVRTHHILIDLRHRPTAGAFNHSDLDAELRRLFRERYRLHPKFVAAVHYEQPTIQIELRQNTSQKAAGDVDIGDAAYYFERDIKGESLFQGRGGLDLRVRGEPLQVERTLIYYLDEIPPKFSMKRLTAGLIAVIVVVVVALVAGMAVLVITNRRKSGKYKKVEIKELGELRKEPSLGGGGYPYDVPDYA
Work on B1 yielded an EC50 of 810 pM.

Molecular target: T2, cynomolgus TROP2-his protein (cynomolgus monkey, UniProt P09758 27-272 (human entry), limits assumed)
T2 construct: no cleavage site is stated; also called Cynomolgus monkey TROP2-his protein; monkey TROP2
T2 chain: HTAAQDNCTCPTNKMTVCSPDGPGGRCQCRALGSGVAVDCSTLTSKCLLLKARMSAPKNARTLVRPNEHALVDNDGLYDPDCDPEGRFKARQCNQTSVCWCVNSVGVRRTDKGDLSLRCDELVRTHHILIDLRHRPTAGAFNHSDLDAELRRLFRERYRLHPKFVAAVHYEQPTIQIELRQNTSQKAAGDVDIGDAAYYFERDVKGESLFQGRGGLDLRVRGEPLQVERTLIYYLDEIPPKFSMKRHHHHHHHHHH
Experiment: indirect ELISA, cynomolgus TROP2-his coated, OD(450-630)
In the case of B1, the EC50 is reported as 260 pM.

Each binder was assayed against T3, human TROP2-his protein (human, UniProt P09758 27-274) (assay: SPR Biacore, antibody captured on anti-human IgG CM5 chip, TROP2-his analyte).
T3 construct: Biotin-labelled in the ELISAs, unlabelled analyte in Biacore; also called biotin-labeled human TROP2-his protein; biotin human Trop2-his
T3 sequence: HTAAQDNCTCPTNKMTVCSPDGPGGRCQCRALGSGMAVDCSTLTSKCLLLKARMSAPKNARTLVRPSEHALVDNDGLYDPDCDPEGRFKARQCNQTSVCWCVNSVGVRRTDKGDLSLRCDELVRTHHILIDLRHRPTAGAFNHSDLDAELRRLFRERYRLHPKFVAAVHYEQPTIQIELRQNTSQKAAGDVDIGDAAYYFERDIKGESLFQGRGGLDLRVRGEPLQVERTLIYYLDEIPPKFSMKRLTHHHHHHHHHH
Method: Un-reacted moieties on the chip (biosensor) surface were blocked with ethanolamine. […] The antigen-antibody association kinetics was followed for 2 minutes and the dissociation kinetics was followed for 10 minutes. The association and dissociation curves were fit to a 1:1 Langmuir binding model using BIAcore evaluation software.
For B1, the Kd was 125 pM, the koff was 9.54e-05 s⁻¹ and the kon was 763000 M⁻¹ s⁻¹.

The binders below were run against T3, human TROP2-his protein (assay: SPR Biacore T200, supernatant antibody captured on anti-human IgG CM5 chip, 40 nM human TROP2-his).
Method: The goat anti-human IgG (GE healthcare, Cat #BR100839, Human Antibody Capture Kit) was covalently linked to a CM5 chip instead of goat anti-mouse IgG. […] The human TROP2-his protein at the concentration of 40 nM was used instead of serially diluted human TROP2-his protein.
For B2, the Kd was 215 pM, the koff was 0.000188 s⁻¹ and the kon was 874000 M⁻¹ s⁻¹.
B3 showed a Kd of 188 pM, a koff of 0.000271 s⁻¹ and a kon of 1.44e+06 M⁻¹ s⁻¹.
For B4, the Kd was 215 pM, the koff was 0.00019 s⁻¹ and the kon was 883000 M⁻¹ s⁻¹.
For B5, the Kd was 232 pM, the koff was 0.000279 s⁻¹ and the kon was 1.2e+06 M⁻¹ s⁻¹.
For B6, the Kd was 238 pM, the koff was 0.000199 s⁻¹ and the kon was 836000 M⁻¹ s⁻¹.
B7 was tested, and the Kd was 230 pM, the koff was 0.00028 s⁻¹ and the kon was 1.22e+06 M⁻¹ s⁻¹.
In the case of B8, the Kd is reported as 335 pM, the koff is reported as 0.00029 s⁻¹ and the kon is reported as 868000 M⁻¹ s⁻¹.
B9 was tested, and the Kd was 353 pM, the koff was 0.000204 s⁻¹ and the kon was 577000 M⁻¹ s⁻¹.
B10 was tested, and the Kd was 221 pM, the koff was 0.000199 s⁻¹ and the kon was 898000 M⁻¹ s⁻¹.
B11 was tested, and the Kd was 261 pM, the koff was 0.000304 s⁻¹ and the kon was 1.16e+06 M⁻¹ s⁻¹.
B12 gave a Kd of 223 pM, a koff of 0.000193 s⁻¹ and a kon of 865000 M⁻¹ s⁻¹.
For B13, the Kd was 359 pM, the koff was 0.000205 s⁻¹ and the kon was 571000 M⁻¹ s⁻¹.
B14 showed a Kd of 211 pM, a koff of 0.000192 s⁻¹ and a kon of 909000 M⁻¹ s⁻¹.
In the case of B15, the Kd is reported as 314 pM, the koff is reported as 0.000206 s⁻¹ and the kon is reported as 656000 M⁻¹ s⁻¹.
B16 showed a Kd of 235 pM, a koff of 0.000195 s⁻¹ and a kon of 832000 M⁻¹ s⁻¹.
Work on B17 yielded a Kd of 163 pM, a koff of 0.000175 s⁻¹ and a kon of 1.08e+06 M⁻¹ s⁻¹.
B18 gave a Kd of 232 pM, a koff of 0.000193 s⁻¹ and a kon of 834000 M⁻¹ s⁻¹.
B19 was tested, and the Kd was 166 pM, the koff was 0.000179 s⁻¹ and the kon was 1.08e+06 M⁻¹ s⁻¹.
Binder B20 has a Kd of 216 pM, a koff of 0.000192 s⁻¹ and a kon of 887000 M⁻¹ s⁻¹.
B21 showed a Kd of 238 pM, a koff of 0.000197 s⁻¹ and a kon of 830000 M⁻¹ s⁻¹.

The binders below were run against T3, human TROP2-his protein (assay: capture ELISA, antibody captured on anti-human IgG Fc coat, biotin human TROP2-his in solution, OD(450-630)).
Method: Plates were washed once with wash buffer (PBS+0.05% v/v Tween-20, PBST) and then blocked with 200 μl/well blocking buffer (5% w/v non-fatty milk in PBST) for 2 hours at 37° C. […] Plates containing captured anti-TROP2 antibodies were incubated with biotin-labeled human TROP2-his protein (prepared in house, SEQ ID NO: 67, 56.7 ng/mL in 2.5% w/v non-fatty milk in PBST, 100 μl/well) for 40 minutes at 37° C., washed 4 times, and incubated with streptavidin conjugated HRP (1:10000 dilution in PBST, Jackson Immuno Research, Cat #016-030-084, 100 μl/well) for 40 minutes at 37° C. After a final wash, plates were incubated with 100 μl/well ELISA substrate TMB (Innoreagents, Cat #TMB-S-002) at room temperature. The reaction was stopped in 3-10 minutes at room temperature with 50 μl/well 1M H₂SO₄, and the absorbance of each well was read on a microplate reader using dual wavelength mode with 450 nm for TMB and 630 nm as the reference wavelength. The OD (450-630) values were plotted against antibody concentration. Data was analyzed using Graphpad Prism software and EC₅₀ values were reported.
For the capture ELISA, AffiniPure Goat Anti-Human IgG, Fcγ fragment specific (Jackson Immuno Research, Cat #109-005-098) was used instead of AffiniPure Goat Anti-Mouse IgG, Fcγ fragment specific, 100 μl/well.
For B1, the EC50 was 111 pM.
